The values below come from patent publication US20190241662A1.

Read-outs that look alike come from different tables or passages of the source.

Assay [1] has as its target full-length human CTLA4 expressed on cells (human) (UniProt P16410). Description: flow cytometry, activated human CD4+ T cells, APC-labelled antibody; lower right quadrant 0%.
In assay [2] the target is human PD-L1 on HEK293F cells (human) (UniProt Q9NZQ7). Briefly: flow cytometry, transfected HEK293F cells, 100 nM antibody.
Assay [3] addresses human Tim3 on HEK293F cells (human) (UniProt Q8TDQ0). The assay is described as above.
In assay [4] the target is human LAG3 on HEK293F cells (human) (UniProt P18627). The description is as above.
Assay [5] deals with full-length human CTLA4 expressed on cells (human) (UniProt P16410). The assay is described as above.
Assay [6] concerns the target human Tim3 on HEK293F cells (human) (UniProt Q8TDQ0). Briefly: flow cytometry, transfected HEK293F cells, 100 nM antibody [Cont.].
For assay [7], the target named is human B7H3 on HEK293F cells (human) (UniProt Q5ZPR3). Described as above.
The target in assay [8] is full-length mouse CTLA4 expressed on HEK293F cells (mouse) (UniProt P09793). Description: flow cytometry, transfected HEK293F cells, antibody concentration not printed [Cont.].
The target in assay [9] is human LAG3 on HEK293F cells (human) (UniProt P18627). Description: flow cytometry, transfected HEK293F cells, 100 nM antibody. This is another data set of the same source.
The target in assay [10] is human PD1 on HEK293F cells (human) (UniProt Q15116). Described as above.
Assay [11] deals with full-length human CTLA4 expressed on cells (human) (UniProt P16410). The description is as above. The source holds these as a separate data set.
In assay [12] the target is CTLA4 on activated mouse T cells (mouse) (UniProt P09793). Briefly: flow cytometry, activated mouse CD4+ T cells, APC-labelled antibody; lower right quadrant 0.043%.
For assay [13], the target named is CTLA4 on activated monkey T cells. Briefly: flow cytometry, activated monkey CD4+ T cells, APC-labelled antibody; lower right quadrant […].
CTLA4 on activated monkey T cells, sequence (chain, as listed by the source limits assumed): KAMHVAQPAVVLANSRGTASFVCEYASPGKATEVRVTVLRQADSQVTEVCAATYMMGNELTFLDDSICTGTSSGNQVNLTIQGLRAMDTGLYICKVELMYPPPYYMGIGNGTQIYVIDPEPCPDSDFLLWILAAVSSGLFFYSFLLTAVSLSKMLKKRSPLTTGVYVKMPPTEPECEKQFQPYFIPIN

full-length human CTLA4 expressed on cells (human), sequence (P16410 36-223): as the sequence (chain, as listed by the source limits assumed) above, with N14S, T18I, M106L counted along it
human LAG3 on HEK293F cells (human), sequence (P18627 23-525): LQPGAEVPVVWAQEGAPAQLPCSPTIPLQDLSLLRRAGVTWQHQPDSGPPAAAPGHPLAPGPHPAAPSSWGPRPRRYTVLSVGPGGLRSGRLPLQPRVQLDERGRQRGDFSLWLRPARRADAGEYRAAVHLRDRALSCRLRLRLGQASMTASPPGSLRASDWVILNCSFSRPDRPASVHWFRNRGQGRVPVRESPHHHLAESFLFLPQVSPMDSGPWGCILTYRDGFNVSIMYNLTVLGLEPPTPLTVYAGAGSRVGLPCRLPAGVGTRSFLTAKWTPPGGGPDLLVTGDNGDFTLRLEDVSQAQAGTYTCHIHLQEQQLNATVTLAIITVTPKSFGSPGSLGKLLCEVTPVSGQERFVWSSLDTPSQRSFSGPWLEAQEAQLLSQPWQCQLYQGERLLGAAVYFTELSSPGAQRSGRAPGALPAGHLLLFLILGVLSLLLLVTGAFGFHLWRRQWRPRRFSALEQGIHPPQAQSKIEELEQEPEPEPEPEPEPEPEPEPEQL
human Tim3 on HEK293F cells (human), sequence (Q8TDQ0 22-301): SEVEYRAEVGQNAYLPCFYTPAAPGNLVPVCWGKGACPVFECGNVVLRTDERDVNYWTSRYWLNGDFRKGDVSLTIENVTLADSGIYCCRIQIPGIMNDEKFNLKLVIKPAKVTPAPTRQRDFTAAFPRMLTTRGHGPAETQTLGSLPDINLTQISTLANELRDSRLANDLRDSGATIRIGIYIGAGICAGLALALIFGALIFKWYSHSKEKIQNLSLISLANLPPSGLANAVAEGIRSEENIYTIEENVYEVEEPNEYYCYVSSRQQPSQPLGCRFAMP
human PD-L1 on HEK293F cells (human), sequence (Q9NZQ7 19-290): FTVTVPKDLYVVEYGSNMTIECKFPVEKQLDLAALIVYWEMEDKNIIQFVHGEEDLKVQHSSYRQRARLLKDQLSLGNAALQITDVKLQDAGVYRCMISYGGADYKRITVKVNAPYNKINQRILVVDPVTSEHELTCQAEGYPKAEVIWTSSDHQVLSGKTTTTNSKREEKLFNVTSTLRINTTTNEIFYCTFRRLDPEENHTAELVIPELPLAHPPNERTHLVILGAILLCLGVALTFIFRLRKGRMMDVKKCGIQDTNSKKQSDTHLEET
full-length mouse CTLA4 expressed on HEK293F cells (mouse), sequence (P09793 36-223): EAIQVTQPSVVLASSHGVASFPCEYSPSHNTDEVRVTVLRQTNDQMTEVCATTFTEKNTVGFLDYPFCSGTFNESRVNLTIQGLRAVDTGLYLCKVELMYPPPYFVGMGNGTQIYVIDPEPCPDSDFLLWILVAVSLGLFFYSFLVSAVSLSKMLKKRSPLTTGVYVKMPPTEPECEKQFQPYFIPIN
human B7H3 on HEK293F cells (human), sequence (Q5ZPR3 29-534): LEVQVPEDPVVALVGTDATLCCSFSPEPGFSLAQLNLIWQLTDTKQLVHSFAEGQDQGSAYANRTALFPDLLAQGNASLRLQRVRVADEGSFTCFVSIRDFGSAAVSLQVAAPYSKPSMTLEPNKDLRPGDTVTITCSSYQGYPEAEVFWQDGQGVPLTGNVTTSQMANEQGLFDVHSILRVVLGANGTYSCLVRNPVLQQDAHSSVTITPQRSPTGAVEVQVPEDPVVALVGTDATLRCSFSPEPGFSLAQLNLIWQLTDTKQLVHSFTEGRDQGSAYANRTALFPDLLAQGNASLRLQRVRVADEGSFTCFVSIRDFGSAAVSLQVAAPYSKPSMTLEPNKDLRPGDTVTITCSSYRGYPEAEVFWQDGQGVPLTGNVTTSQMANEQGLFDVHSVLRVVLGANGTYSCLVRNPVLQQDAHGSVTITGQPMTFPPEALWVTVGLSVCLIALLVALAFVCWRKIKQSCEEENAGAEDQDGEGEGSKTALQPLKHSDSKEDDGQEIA
CTLA4 on activated mouse T cells (mouse), sequence (P09793 36-223 limits assumed): as the sequence (P09793 36-223) above
human PD1 on HEK293F cells (human), sequence (Q15116 25-288): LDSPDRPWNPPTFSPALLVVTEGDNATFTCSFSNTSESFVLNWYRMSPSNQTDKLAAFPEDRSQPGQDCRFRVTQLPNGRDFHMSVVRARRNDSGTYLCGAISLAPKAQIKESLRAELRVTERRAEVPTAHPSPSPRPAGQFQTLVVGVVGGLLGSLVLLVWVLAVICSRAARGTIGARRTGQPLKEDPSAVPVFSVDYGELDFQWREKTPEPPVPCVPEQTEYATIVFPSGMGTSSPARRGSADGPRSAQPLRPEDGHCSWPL

Regarding isotype control antibody (human IgG1), the % of cells in upper right quadrant (APC-positive) was found to be 0.034% in assay [1], 1.98% in assay [12] and 6.27% in assay [13]. Besides, the % of cells in upper right quadrant (Q2) came out at 0.27% in [2]; 0.055% in assay [3]; 0.17% in assay [4]; 0.45% in [5]; 1.06% in assay [6]; 1.72% in assay [7]. Further, the % of cells in upper right quadrant (Q2) in [8] came out at 0.23; in [9], 2.1%; in assay [10], 0.99%; in assay [11], 1.79%. The Mean in assay [2] amounted to 36300; in assay [3], 3200; in [4], 3550; in [5], 48000; in [8], 3700.
